B1: human aminopeptidase N (hAPN), residues 66 to 967 (receptor)
chain: DQSKAWNRYRLPNTLKPDSYRVTLRPYLTPNDRGLYVFKGSSTVRFTCKEATDVIIIHSKKLNYTLSQGHRVVLRGVGGSQPPDIDKTELVEPTEYLVVHLKGSLVKDSQYEMDSEFEGELADDLAGFYRSEYMEGNVRKVVATTQMQAADARKSFPCFDEPAMKAEFNITLIHPKDLTALSNMLPKGPSTPLPEDPNWNVTEFHTTPKMSTYLLAFIVSEFDYVEKQASNGVLIRIWARPSAIAAGHGDYALNVTGPILNFFAGHYDTPYPLPKSDQIGLPDFNAGAMENWGLVTYRENSLLFDPLSSSSSNKERVVTVIAHELAHQWFGNLVTIEWWNDLWLNEGFASYVEYLGADYAEPTWNLKDLMVLNDVYRVMAVDALASSHPLSTPASEINTPAQISELFDAISYSKGASVLRMLSSFLSEDVFKQGLASYLHTFAYQNTIYLNLWDHLQEAVNNRSIQLPTTVRDIMNRWTLQMGFPVITVDTSTGTLSQEHFLLDPDSNVTRPSEFNYVWIVPITSIRDGRQQQDYWLIDVRAQNDLFSTSGNEWVLLNLNVTGYYRVNYDEENWRKIQTQLQRDHSAIPVINRAQIINDAFNLASAHKVPVTLALNNTLFLIEERQYMPWEAALSSLSYFKLMFDRSEVYGPMKNYLKKQVTPLFIHFRNNTNNWREIPENLMDQYSEVNAISTACSNGVPECEEMVSGLFKQWMENPNNNPIHPNLRSTVYCNAIAQGGEEEWDFAWEQFRNATLVNEADKLRAALACSKELWILNRYLSYTLNPDLIRKQDATSTIISITNNVIGQGLVWDFVQSNWKKLFNDYGGGSFSFSNLIQAVTRRFSTEYELQQLEQFKKDNEETGFGSGTRALEQALEKTKANIKWVKENKEVVLQWFTENSK

Key:
[1] = target: human aminopeptidase N (hAPN), residues 66 to 967 (human) (UniProt P15144); experiment: SPR
[2] = target: T1, HCoV-229E S glycoprotein ectodomain trimer (S-trimer) (HCoV-229E, UniProt P15423 16-1116); experiment: SPR
T1 sequence: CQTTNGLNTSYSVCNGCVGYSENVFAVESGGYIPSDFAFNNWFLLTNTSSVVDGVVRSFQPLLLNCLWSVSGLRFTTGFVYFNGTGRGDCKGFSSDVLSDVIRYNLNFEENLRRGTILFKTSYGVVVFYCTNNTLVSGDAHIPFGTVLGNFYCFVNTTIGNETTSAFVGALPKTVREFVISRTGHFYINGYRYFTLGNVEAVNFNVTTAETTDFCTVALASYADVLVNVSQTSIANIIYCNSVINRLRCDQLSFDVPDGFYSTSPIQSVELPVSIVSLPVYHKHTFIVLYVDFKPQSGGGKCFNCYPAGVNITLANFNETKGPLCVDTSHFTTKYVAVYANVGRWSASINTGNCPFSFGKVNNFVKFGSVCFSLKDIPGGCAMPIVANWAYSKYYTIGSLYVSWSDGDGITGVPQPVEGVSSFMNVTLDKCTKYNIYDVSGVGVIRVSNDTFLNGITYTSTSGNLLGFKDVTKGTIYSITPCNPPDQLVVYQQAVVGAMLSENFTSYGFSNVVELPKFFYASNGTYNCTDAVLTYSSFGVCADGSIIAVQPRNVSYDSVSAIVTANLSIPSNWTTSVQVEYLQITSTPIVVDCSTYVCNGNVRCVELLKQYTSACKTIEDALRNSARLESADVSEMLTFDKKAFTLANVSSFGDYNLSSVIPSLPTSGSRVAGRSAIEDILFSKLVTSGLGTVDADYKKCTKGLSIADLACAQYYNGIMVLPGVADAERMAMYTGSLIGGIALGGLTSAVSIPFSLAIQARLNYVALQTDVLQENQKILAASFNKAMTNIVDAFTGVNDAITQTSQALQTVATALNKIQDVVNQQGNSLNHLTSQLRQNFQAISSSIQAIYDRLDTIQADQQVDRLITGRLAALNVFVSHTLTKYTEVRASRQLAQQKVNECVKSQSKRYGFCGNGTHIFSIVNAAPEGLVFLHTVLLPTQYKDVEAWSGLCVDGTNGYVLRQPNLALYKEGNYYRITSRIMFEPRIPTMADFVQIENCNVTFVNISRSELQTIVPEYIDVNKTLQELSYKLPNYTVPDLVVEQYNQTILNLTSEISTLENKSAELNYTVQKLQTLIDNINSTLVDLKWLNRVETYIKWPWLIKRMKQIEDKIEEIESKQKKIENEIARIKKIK

Molecule	Kd [1] [nM]	koff [1] [s⁻¹]	kon [1] [M⁻¹ s⁻¹]	Kd [2] [nM]	koff [2] [s⁻¹]	kon [2] [M⁻¹ s⁻¹]
HCoV-229E NTD-deficient S-trimer (S-trimer/ΔNTD) (from UniProt P15423 16-1116) (domain or fragment)	2.12	4.1e-05	19400			
B1				3.29	0.000121	36700

— paper PMC8092709 (Journal of Virology, 2021)
